The results in this text go back to publication PMC5699643 (Nature microbiology, 2017).

Series [1] deals with the molecule itself. Nature of the series: in vitro reconstitution of S-layer sheets, seen by cryo-EM and cryo-ET.
The series “crystal structure” concerns the molecule itself. Kind of series: crystal structure.

B1: RsaA, S-layer protein of Caulobacter crescentus CB15N (NA1000), full length, purified (natural protein)
chain: MAYTTAQLVTAYTNANLGKAPDAATTLTLDAYATQTQTGGLSDAAALTNTLKLVNSTTAVAIQTYQFFTGVAPSAAGLDFLVDSTTNTNDLNDAYYSKFAQENRFINFSINLATGAGAGATAFAAAYTGVSYAQTVATAYDKIIGNAVATAAGVDVAAAVAFLSRQANIDYLTAFVRANTPFTAAADIDLAVKAALIGTILNAATVSGIGGYATATAAMINDLSDGALSTDNAAGVNLFTAYPSSGVSGSTLSLTTGTDTLTGTANNDTFVAGEVAGAATLTVGDTLSGGAGTDVLNWVQAAAVTALPTGVTISGIETMNVTSGAAITLNTSSGVTGLTALNTNTSGAAQTVTAGAGQNLTATTAAQAANNVAVDGGANVTVASTGVTSGTTTVGANSAASGTVSVSVANSSTTTTGAIAVTGGTAVTVAQTAGNAVNTTLTQADVTVTGNSSTTAVTVTQTAAATAGATVAGRVNGAVTITDSAAASATTAGKIATVTLGSFGAATIDSSALTTVNLSGTGTSLGIGRGALTATPTANTLTLNVNGLTTTGAITDSEAAADDGFTTINIAGSTASSTIASLVAADATTLNISGDARVTITSHTAAALTGITVTNSVGATLGAELATGLVFTGGAGADSILLGATTKAIVMGAGDDTVTVSSATLGAGGSVNGGDGTDVLVANVNGSSFSADPAFGGFETLRVAGAAAQGSHNANGFTALQLGATAGATTFTNVAVNVGLTVLAAPTGTTTVTLANATGTSDVFNLTLSSSAALAAGTVALAGVETVNIAATDTNTTAHVDTLTLQATSAKSIVVTGNAGLNLTNTGNTAVTSFDASAVTGTGSAVTFVSANTTVGEVVTIRGGAGADSLTGSATANDTIIGGAGADTLVYTGGTDTFTGGTGADIFDINAIGTSTAFVTITDAAVGDKLDLVGISTNGAIADGAFGAAVTLGAAATLAQYLDAAAAGDGSGTSVAKWFQFGGDTYVVVDSSAGATFVSGADAVIKLTGLVTLTTSAFATEVLTLA
Turning to B1, the binding result in series [1] is listed as “binds”.

B2: RsaA(249-1026), the N-terminally cleaved RsaA in the crystals (domain or fragment)
chain: GSTLSLTTGTDTLTGTANNDTFVAGEVAGAATLTVGDTLSGGAGTDVLNWVQAAAVTALPTGVTISGIETMNVTSGAAITLNTSSGVTGLTALNTNTSGAAQTVTAGAGQNLTATTAAQAANNVAVDGGANVTVASTGVTSGTTTVGANSAASGTVSVSVANSSTTTTGAIAVTGGTAVTVAQTAGNAVNTTLTQADVTVTGNSSTTAVTVTQTAAATAGATVAGRVNGAVTITDSAAASATTAGKIATVTLGSFGAATIDSSALTTVNLSGTGTSLGIGRGALTATPTANTLTLNVNGLTTTGAITDSEAAADDGFTTINIAGSTASSTIASLVAADATTLNISGDARVTITSHTAAALTGITVTNSVGATLGAELATGLVFTGGAGADSILLGATTKAIVMGAGDDTVTVSSATLGAGGSVNGGDGTDVLVANVNGSSFSADPAFGGFETLRVAGAAAQGSHNANGFTALQLGATAGATTFTNVAVNVGLTVLAAPTGTTTVTLANATGTSDVFNLTLSSSAALAAGTVALAGVETVNIAATDTNTTAHVDTLTLQATSAKSIVVTGNAGLNLTNTGNTAVTSFDASAVTGTGSAVTFVSANTTVGEVVTIRGGAGADSLTGSATANDTIIGGAGADTLVYTGGTDTFTGGTGADIFDINAIGTSTAFVTITDAAVGDKLDLVGISTNGAIADGAFGAAVTLGAAATLAQYLDAAAAGDGSGTSVAKWFQFGGDTYVVVDSSAGATFVSGADAVIKLTGLVTLTTSAFATEVLTLA
In the case of B2, the stoichiometry N (as a rule, the number of molecules, sites or subunits per partner or assembly) in the series “crystal structure” was determined as 6.
